# From the supplement of paper PMC12042874
# ± gives the uncertainty stated by the source.
# Assay: amyloid nucleation score (Sup35N fusion, yeast selection) (log enrichment); library NNK1; higher = more nucleation; inactive = no reads after selection
# In short: (§1)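 The nucleation score is the log enrichment of output over input reads, calculated with DiMSum and centred on the mode score of non-aggregating sequences. Sequences with under 100 input reads were excluded. Reads came from Illumina sequencing of plasmid inserts from psi-negative yeast expressing Sup35N fused to peptides of 20 random codons, induced 24 hours with 100 μM copper sulfate and grown 7 days at 30°C without adenine and uracil.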
row,Substance,amyloid nucleation score
1,AKLDWHIRTAEWGLPKLLLT,inactive
2,YLEVPMKFFEFFGFRPVAFV,-0.121 ± 0.54
3,YLFMNRGTVSWRSVYDRV,0.104 ± 0.42
4,YLGWDRNRDYEWAIDASRAN,inactive
5,YLIFKSFK,1.25 ± 0.61
6,YLILLWWTNCRARAKERVDR,-0.155 ± 1.1
7,YLIWLLGFANILYHYTL,inactive
8,YLKGVG,0.104 ± 0.74
9,YLLLLDGGPSPVLAIRHVNG,-0.989 ± 0.76
10,YLLQSAIFGAGVHT,0.672 ± 0.39
11,YLMKRSWTGMIGLGTQVKSS,0.9 ± 0.58
12,YLNSFLYVMLFLVPDRSVTR,6.18 ± 0.068
13,YLNTLRR,inactive
14,YLQIWRLSRRSILL,inactive
15,YLRRHQRNLPEQCCEAGINV,-1.37 ± 1.5
16,YLRVNAHMLDYSF,-0.513 ± 1
17,YLSFSSAHDDIEWVGISCR,inactive
18,YLTQLV,0.528 ± 0.38
19,YLVMRMMVLRMAKPKIVGRD,5.524 ± 0.051
20,YLVTGVGYGGCNIRLWE,0.355 ± 0.83
21,YMKMMYAIYCLWLRHYSMLF,inactive
22,YMRGGQDFYYVQDIVVFLLL,4.24 ± 0.094
23,YMVHMK,0.121 ± 0.76

row,Substance,amyloid nucleation score
1,YMYEMGICFELDDTHEG,0.608 ± 0.55
2,YNLWIGLCRIMEEVILGGT,-0.863 ± 0.61
3,YNRLKSIV,1.51 ± 0.72
4,YNVIWSMVGEYLHSSCYGPV,inactive
5,YNVKVMCSVQSEMRGIT,0.465 ± 0.68
6,YNVSHLIRV,-0.959 ± 0.26
7,YPCNLFCMMTLLNYLGSSVA,6.49 ± 0.074
8,YQDAGVLGRLPHLFTNGSFT,0.021 ± 0.93
9,YQDFAGDARFGEIRWYYPKS,0.125 ± 0.41
10,YQDVVDSDD,-0.762 ± 0.64
11,YQSFLASACSSEPIRFSKQH,0.915 ± 0.66
12,YRFRWRNWSMWVSHKAHKAS,0.851 ± 0.74
13,YRLILVANVQMDHWES,-0.38 ± 0.44
14,YRVHVCQEWMGSWCCGCVKG,2.54 ± 0.2
15,YRVSNVNFSFATFFTHAPVR,1.76 ± 0.16
16,YRVVACMGCALRLVWLARYR,-0.31 ± 0.3
17,YSCMGECFTC,7.89 ± 0.067
18,YSFRAIDTQLTQTLTWLLIR,-0.563 ± 0.53
19,YSGRRQETNVGRLRSNWGGL,-0.568 ± 0.39
20,YSGWEEITVFFSDARV,-0.115 ± 1.3
21,YSHFEQYMDNFNIMNYDYRD,-0.879 ± 1.2
22,YSIFTIKGRDCKLFITNNVS,7.468 ± 0.045
23,YSLFAGLREVSMDVCNDV,0.39 ± 0.5

row,Substance,amyloid nucleation score
1,YSLLY,-0.652 ± 0.66
2,YSLNFYAMPRSSI,3.76 ± 0.1
3,YSLTYVNSYLFGINDCKGPD,8.164 ± 0.054
4,YSMLCLKYL,inactive
5,YSNFFQHRTWMIDCSFPTGL,0.147 ± 0.37
6,YSNLIDGS,7.378 ± 0.047
7,YSNLYFSLNNGNPVLKGYNG,-0.17 ± 0.65
8,YSNSGMGNV,0.568 ± 0.21
9,YSRLSCWYYAPGVSLGVIKW,0.483 ± 0.48
10,YSRMQVAIYMYLVE,3.19 ± 0.17
11,YSRSVGYRRYFI,inactive
12,YSSGKELTGLLDKKFIIGLD,-0.186 ± 0.39
13,YSTLRGFNYVFLKYIVK,0.724 ± 0.54
14,YSVMSSRSGIVGSWVHRGVQ,0.38 ± 0.32
15,YSVVRCRVANC,0.263 ± 0.61
16,YSYKCGGVRTSTSFLSMLFV,0.811 ± 0.18
17,YSYMTYRALFVVTSCLSRWG,1.11 ± 0.66
18,YTCYIVKGLVVLTVACGG,-0.225 ± 0.98
19,YTDFRQSLLTVT,0.07 ± 0.43
20,YTEIMGL,-0.046 ± 0.31
21,YTFGDAGHPESAMVTCRAYS,-0.007 ± 0.33
22,YTGSL,-0.498 ± 0.63
23,YTRSVL,0.2 ± 0.23

row,Substance,amyloid nucleation score
1,YTVVLEKTKVMYTVAPPRSL,-1.04 ± 2.4
2,YTWIEHAWSS,-0.062 ± 0.55
3,YTYTQTFLV,-0.255 ± 0.47
4,YTYVSMPGR,-0.358 ± 0.34
5,YVAISHGQTPSLYL,-0.827 ± 1.5
6,YVCFRVDTCRLVCVRRWLNY,0.706 ± 0.51
7,YVESGTFTDPRFWVSFAVCF,0.791 ± 0.54
8,YVEVQVIKWVMKSEVHRGAW,1.27 ± 0.48
9,YVFLRFVSVCSYN,4.9 ± 0.05
10,YVFVWMRYTSFWVMNTFYSS,0.193 ± 0.46
11,YVGSDLFYRCQKNKYHRHSL,-0.215 ± 0.97
12,YVGSRSAVNIGIICGSRLNE,-0.739 ± 1.5
13,YVIMWGGLTLYLWGCRKWWE,-0.103 ± 0.43
14,YVIRFVKCR,2.23 ± 0.55
15,YVLWNRASIAPYIQHGLRVL,1.19 ± 0.19
16,YVMAESSASNDQAVGNWRGR,-0.643 ± 0.97
17,YVPPSMMLNGGDPEYSVGLK,0.082 ± 0.89
18,YVQFYGWRTWDLYWYLEWVV,-1.07 ± 0.8
19,YVRFYLFNFVGLRQKFMI,2.74 ± 0.17
20,YVRMACMLGLHSRYWMHRVV,-0.267 ± 0.6
21,YVSAGRCKYDDLPTRV,0.133 ± 0.67
22,YVVCKGIRSSSWDSWVSKR,-0.393 ± 0.28
23,YVVCYFDNLFLSSISLSLRA,8.521 ± 0.058

row,Substance,amyloid nucleation score
1,YWAIVW,-0.128 ± 0.39
2,YWEGWGKTRFKCNGSRSRAG,-1.01 ± 1.3
3,YWFFSIMSSYSVNTQM,1.64 ± 0.8
4,YWLNNYYVVGNIS,2.57 ± 0.25
5,YYESRNWSILFRLINMF,-0.078 ± 0.46
6,YYFRHMLKDNHLVIV,inactive
7,YYGVWVDREHWL,0.628 ± 0.48
8,YYISLFTEDMSVRRVNQTCF,-2.03 ± 0.96
9,YYLDGTGLWVNCVRMARGCG,1.16 ± 0.78
10,YYLEGSNALYIKVDRILRLL,-0.187 ± 0.54
11,YYLSCNDSKGYSMRQFMYDV,-0.139 ± 0.81
12,YYLSLGLKLMSMVPVKSTY,inactive
13,YYMMTKRGFNMILCCCCRCF,0.667 ± 0.2
14,YYNNLRVSSYQSKFPIMAMF,inactive
15,YYPNPMQPW,-0.526 ± 0.47
16,YYSHIIQAGCWVVYRDVRLF,0.52 ± 0.88
17,YYSLAVLTSLRARKSTVFND,-1.16 ± 0.78
18,YYTNWQEGYRVGRFRCDGHN,inactive
19,YYYEPLFPRELHSQLYLL,-0.268 ± 0.8

# Assay: amyloid nucleation score (Sup35N fusion, yeast selection) (log enrichment); library NNK2; higher = more nucleation; inactive = no reads after selection
# In short: as §1
row,Substance,amyloid nucleation score
1,AKLDWHIRTAEWGLPKLLLT,-0.467 ± 0.54
